From publication PMC12152883, “Bile acids inhibit equilibrative adenosine transport to alter adenosine receptor signaling in cholestasis” (The Journal of Biological Chemistry, 2025)
Values joined by “and” are separate entries in the source; they are usually repeats but may differ in a detail not shown here. Identical values can stand only once. Like-named read-outs stand apart in the source and are kept apart here.

What was measured:
[1] = target: T1, ENT2 (Homo sapiens, UniProt Q14542); settings: cited from earlier work
T1 sequence (Q14542 1-456): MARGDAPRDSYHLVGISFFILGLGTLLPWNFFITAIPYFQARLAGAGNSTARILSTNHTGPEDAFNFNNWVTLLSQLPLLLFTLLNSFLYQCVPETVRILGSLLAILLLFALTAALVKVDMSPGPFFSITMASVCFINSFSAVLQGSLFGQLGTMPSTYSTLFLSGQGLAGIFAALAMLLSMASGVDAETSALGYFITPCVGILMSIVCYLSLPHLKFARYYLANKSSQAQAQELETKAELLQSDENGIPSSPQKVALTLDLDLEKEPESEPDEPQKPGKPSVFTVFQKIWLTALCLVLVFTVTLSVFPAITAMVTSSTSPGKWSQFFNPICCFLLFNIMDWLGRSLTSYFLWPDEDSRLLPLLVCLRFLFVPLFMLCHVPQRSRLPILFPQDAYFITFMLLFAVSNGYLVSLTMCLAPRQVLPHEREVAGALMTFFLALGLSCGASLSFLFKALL

[2] = test system: ENT3; set-up: method as in PMID 34144123; settings: read-out: km of ENT3 for Ado transport; cited from earlier work
[3] = substrate: C[C@H](CCC(=O)O)[C@H]1CC[C@H]2[C@@H]3[C@H](O)C[C@@H]4C[C@H](O)CC[C@]4(C)[C@H]3C[C@H](O)[C@]12C; test: Radiolabeled BA transport in ENT2 mRNA-injected Xenopus oocytes; format: cell-based, human; settings: pH 7.4
Protocol: (§1) We used a Xenopus oocyte-based transport assay that was previously used to examine BA transport by plasma membrane–directed ENT3 with a truncated N-terminus (that harbors lysosomal targeting motif) to experimentally verify whether ENT2 is capable of translocating BAs across the cell membrane ([24]). We tested both ENT1 and ENT2 along with CNT2, a purine nucleoside-specific concentrative transporter, to investigate their capacities to transport radiolabeled BAs. […] Transport was measured at pH 7.4, which is the closest pH to the pH of the extracellular fluid in which cells are exposed to solutes such as BAs to conduct plasma membrane transport ([29]).
(§2) The generated pOX expression constructs were linearized with either the Not1 or Sac1 restriction enzymes. The digested products were purified via phenol‒chloroform extraction. The mRNAs were synthesized using mMESSAGE mMACHINE (Ambion) transcription kits according to the manufacturer’s instructions. The mRNAs were purified via lithium precipitation. Oocytes were procured from Ecocyte. Prior to experiments, procured oocytes were defolliculated by treating with collagenase A-OR II solution followed by washing with Barth’s solution. Following microscopic verification, selected oocytes were incubated to recover overnight at 25 °C in a shaker incubator. Fifty nanoliters (400–800 ng/μl) of equal amounts of mRNAs were injected into defolliculated oocytes the next day. Expression of plasmids was analyzed after RNA isolation from oocyte extracts and conducting qPCR analysis with gene-specific primers as described earlier ([30]). The injected oocytes were incubated at 15 °C for 24 h before transport assays were performed. The uptake of radiolabeled substrates was measured after a 30 min incubation in transport buffer (100 mM NaCl, 2 mM KCl, 1 mM CaCl2, 1 mM MgCl2, and 10 mM Hepes, pH 7.4) at room temperature. Uptake was terminated by washing the oocytes three times with arrest buffer containing 20 mM uridine. Individual oocytes were shaken overnight in 10% SDS for complete dissolution, and then the radioactivity was quantified with a Beckman liquid scintillation counter. The data are presented as the mean ± SD (n = 8–12 oocytes). A representative experiment from 3 to 5 independent experiments is presented.

[4] = substrate: C[C@H](CCC(=O)O)[C@H]1CC[C@H]2[C@@H]3CC[C@@H]4C[C@H](O)CC[C@]4(C)[C@H]3C[C@H](O)[C@]12C; test: as above; format: cell-based, human; settings: pH 7.4
Protocol: as §1, §2

[5] = other: printed in picture Fig. 2B

In the case of `Nc1ncnc2c1ncn2[C@@H]1O[C@H](CO)[C@@H](O)[C@H]1O` [Ado, adenosine], the Km ([1]; read-out: Km of ENT2 for Ado transport) is given as about 100 µM and the Km [2] is given as 2000 µM.

In the case of `Nc1nc2c(ncn2[C@@H]2O[C@H](CO)[C@@H](O)[C@H]2O)c(=O)[nH]1` [guanosine], the Km ([1]; cloned ENT2-expressing ENT-deficient PK15 cells, read-out: km for guanosine, ENT2) is given as 2700 µM.

B1: ENT2 (Homo sapiens) (protein)
chain: T1 sequence (Q14542 1-456)
notes: The complete ORF of ENT1 (amplified using forward primer); expressed in transfected cells; host or cells: Xenopus laevis oocytes injected with in vitro-transcribed capped mRNA from pOX-hENT2
With B1 the Km ([3]; other: oocytes, Fig. 2B) was 195 µM and 200 µM, the Km [3, 5] was 200 µM and the Km ([4]; other: oocytes, Fig. 2B) was 491 µM. The Km [4, 5] was 500 µM.
